{"source": "patent US20020141999A1", "binders": {"B1": {"name": "human K12-Fc fusion protein (extracellular domain of human K12 fused to the Fc portion of human IgG1) (Fc fusion, not shown: a dimerising Fc or GST)", "chain": "QNEGWDSPICTEGVVSVSWGENTVMSCNISNAFSHVNIKLRAHGQESAIFNEVAPGYFSRDGWQLQVQGGVAQLVIKGARDSHAGLYMWHLVGHQRNNRQVTLEVSGAEPQSAPDTG"}}, "target": "HuCD7-TR (human CD7 containing an internal deletion of the 36 amino acid tandem repeat) (human) (UniProt P09564)", "sequence (P09564 other isoform, or with tags, fused parts or gaps limits assumed)": "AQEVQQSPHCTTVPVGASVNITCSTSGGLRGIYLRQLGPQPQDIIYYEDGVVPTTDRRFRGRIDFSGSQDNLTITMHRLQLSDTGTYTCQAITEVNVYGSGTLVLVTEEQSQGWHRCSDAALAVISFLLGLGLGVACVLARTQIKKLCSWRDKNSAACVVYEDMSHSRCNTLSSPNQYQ", "test": "HuK12-Fc on transfected COS-1 cells, 125I anti-human Fc, phosphorimager", "data": [{"binder": "B1", "values": [{"measurement": "fold less relative binding than to full length HuCD7", "value": 10, "unit": "fold"}]}]}
